Reference: the nanobody polyreactivity screen of Harvey et al. (2022)

test: yeast display, Sf9 membrane polyspecificity reagent, FACS + sequencing; frameworks hold sequencing errors
Method in brief: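 Synthetic nanobody libraries on Saccharomyces cerevisiae BJ5465 were galactose-induced for 36–48 hours, stained 1 hour at 4 °C with 10% biotinylated, detergent-solubilized Sf9 membrane reagent and enriched on streptavidin microbeads. FACS then separated cells into low and high (top ~1%) gates by anti-HA (expression) and streptavidin (reagent binding) fluorescence. Genes were colony-PCR amplified, MiSeq 2 × 250 sequenced and CDR-length filtered. A clone's polyreactivity label is that of its gate of origin.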

Sequence	polyreactivity (PSR sort gate)
QVQLEESGGGLVQAGGSLRLSCAASGYTFESYPMGWYRQAPGKEREFVAVISSSDTSTSYADSVKGRFTISRDNAKNTVYLQMNSLNPEDTAVYYCAAYSSPYYITYYWYNYDYWGQGTQVTVSS	low polyreactivity
QVQLEESGGGLVQAGGSLRLSCAASGYTFRGNARGWYRQAPGKERELVASISYSGGTTYADSVKGRFTISRDNAKNTVYLHRNSLKQEDTAVYYCNAAGFYYLYSHRQYEFWGQGTQLTVSS	low polyreactivity
QVQLEESGGGLVQAGGSLRLSCAASGYTSLYYGMGWYRQAPGKERELVASISRGGSTYADSVKGRFTISRDNAKNTVYLLMNRLKPEDTAVYYCNADGGWDDPWSGWVEYDYWGQGTQVTGSS	low polyreactivity
QVQLEESGGGLVQAGGSLRLSCAASVFTFSRYAMGWYRQAHGKVREIVAAISYRGGSTYADSVKGRFTISRDNAKNTVYLQMNSLKPEDTAVYYCAALRWGTDVWRRRIGSLLMGYSGQGTQVTVSS	high polyreactivity
QVQLEESGGGLVQAGGSLRLSCAATGILRLNAIGWYRHAPGKEREFVATISRSGGITYYADSVKGRFTISRDNAKNTVYLQMNSLKPEDTAVYYCAKGGYSLYGYWGQGTQVTVSS	high polyreactivity
QVQLEESGGGLVQAGGSLRLSCAAYGGIFGYYPMGWYRQATGKERELVAAINYSGGSTYYADSVKGRFTISRDNSKNTVYLQMNSLKPEVTAVYYCAKRSYGGTLHYAFDSWGQGTQVTVSS	low polyreactivity
QVQLEESGGGLVQAGGSLRLSCAAYGSTFSYNAMGGSRPAPGTQRELVAAITSSGSSTYYADSVKGRFTISRYNAKNTVYFQMNSLKPEDTAVYYCNAEVLFVAGQVQRNSGDYWGQGTQVTVSS	low polyreactivity
QVQLEESGGGLVQAGGSLRLSCAAYYAMGWYRQAPGKERELVAAISSTGRTNYADSVKGRFTISRDNAKNTVYLQMNSLKPEDTAVYYCNAGDRSGMEYWGQGTQVTVSS	low polyreactivity
QVQLEESGGGLVQAGGSLRLSCADSGSTLYWNAMGWYRQAPGKERELVAVISESGGTTYYADSVKGRFTISRDNAKNTVYLQMNSLKPEDTAVYYCAAVWYYQFGVWGYYWGQGTQVTVSS	low polyreactivity
QVQLEESGGGLVQAGGSLRLSCPPSGSTYYVYAMGWYRPAPGKERELVAAIDGGDTYYADSVKGGFTISRDNAMNTVFLQMNSLKPEDTAVYYCAAESLPEISVGLGFWGQGTQVTVSS	low polyreactivity
QVQLEESGGGLVQAGGSLRLSFAASGYTFDPYDMGWYRQAPGKERELVASISWSGGDTYYADSVKGRFTISRDNAKNTVYLQMNSLKPEDTAVYYCAADRYIPRSIIMDYWGQGNQVTVSS	low polyreactivity
QVQLEESGGGLVQAGGSLRLSSAASGGTFRPYAMGWYRQAPGKERELVATIRSSGGRTYYADSVKGRFTISRDNAKNTVYLQMTSLKPEDTAVYYCAKRAQTYYGYDYWGQGTQVTVSS	high polyreactivity
QVQLEESGGGLVQAGGSLRLSWAASGITFAYYAMGWYRQAPGKERELVAAINYNGGRTYYADSVKGRFTISRDNAKNTVYLQMNSLKPEDTAVYYCAARGYRHFYYWGQGTQVTVSS	high polyreactivity
QVQLEESGGGLVQAGGSLRLTCAASGRIFFQNTIGWYRQAPGQERELVAAITSDGSTYYADSVKGRFTISRDNAKNTVYLQMNSLKPEDTAVYYCAAEISYRWWYKLGFTSFDYWGQGTQVTVSS	low polyreactivity
QVQLEESGGGLVQAGGSLRLTCAASGRTFDFYAMGWYRQAPGKEREFVAAITFSTGSTTYADSVKGRFTISRDNAKNTVYLQMNSLKPEDTAVYYCNADAFNKISYVWYDYWGQGTQVTVSS	low polyreactivity
QVQLEESGGGLVQAGGSLRLTCAATGRIYFYGMGRYRQAPGNERELVATITSVSNTYYADSVKGRFTKSRDNAKNTVYLVMNSLKPEETAVYYCAAVTRGNWVYYWGQRTQVTVSS	high polyreactivity

Sequence	polyreactivity (PSR sort gate)
QVQLEESGGGLVQAGGSLRLTCAGSGSIFYVYPMGWYRPAPGKERELVAAIYSGASTYYADSVKGRFTISRDNAKNTVYLQKNSLKPEDTAVYYCAAYVFFQTYFSYYVEGDFWGQGTQVTVSS	low polyreactivity
QVQLEESGGGLVQAGGSLRLTGAASGSTVVSYAMGWYRQERGKEWELVAAISSSSGRTRYADSVKGSFTISRDNAKNTVYLQMNSLKPEDTAVYYCAARRQSTRPGFYYWGQGTQVTVSS	high polyreactivity
QVQLEESGGGLVQAGGSLRVSCAPSGRTFGWYTMGWYRQAPGKERELVAVISSTGGRTYYADSVKGRFTISRDNAKNTVYLQMNSLKPEDTAVYYCAAEYVSAKWESGYWGQGTQVTVSS	low polyreactivity
QVQLEESGGGLVQAGGSLSLSCAASGNFFVLYAMGCYRQAPGKERELVASITSDGITYYADSVKGRFTMSRDNAKNTVYLQMNSLKPEDTAVYYCAVDRSYRYLPRGDYWGQGTQVTVSS	low polyreactivity
QVQLEESGGGLVQAGGSLSLSCDASGRNFEGYAMGWYRQAPGKERELVAAINWSGGTTHYADSVKGRFTISRDNANNTVYLQINSLKPADTAVYYCAVRGRTPYDYWGQGTQVTVSS	low polyreactivity
QVQLEESGGGLVQAGGTLRLSCAACGRTFYRYAMGWYRKAPGKERQLVAAISASGGITYYADSVKGRFTISRDNAKNNVYLQMNSLKADDTAVYYCAVRYNPWYGNYDYWGQGTQVTVSS	high polyreactivity
QVQLEESGGGLVQAGGTLRLSCAASGRIFGWYAMGWYRQPPGKERELVAAISSGGRTNYADSVKGRFTISRDNAKNTVYLQMNSLKPEDTAVYYCNARSTYLPYKFGYDYWGQGTQVTVSS	low polyreactivity
QVQLEESGGGLVQAGGTLRLSCAASGSIFRNYAMGWYRQAPGKEWQLVAAISRSGTSTYYADSVKGRFTISRDNAKNTVYFQMNSLKPEDYAVYYCNARTYVAVGFNYWGQGTQVTVSS	high polyreactivity
QVQLEESGGGLVQAGVSLRLSCAASGIIFHFNDMVWYRQAPGKERELLAAIDSTGSTNYADSVKGRFTISRDNAKNTVYLQMNSLKPEDTAVYYCAVLNHRVDSVLTRYYYWGQGTQVTVSS	low polyreactivity
QVQLEESGGGLVQAGVSLRLSCAASGRIFSSNAMGWYRQAPGKERELVAAITYSAGSTYYAVSVKGRFTISRDNAKNTVYLQMNSLKPEDTAVYYCAADSYYDRTIQFEFYARTYDYWGQGTQVTVSS	low polyreactivity
QVQLEESGGGLVQEGGSLRLSCAASGSIFGGYVMGWYRQAPGKERELVAVITKRGGSTYYADSVKGRFTISRDNAKNTVYFQMNSLKPEDTAVYYCNKDGYYASVLGYDYWGQGTQVTVSS	high polyreactivity
QVQLEESGGGLVQGGCSLRLSCAGSGSIFIQYDMGWYRQAPVIERELVATIRSGDSTTYADSVKGRFTISRDNAKNTVYLQMNSLKPEDTAVYYCAKDYRLDYDYDYWGQGTQVTVSS	low polyreactivity
QVQLEESGGGVVQAGGSLRISCAASGIIFYRYTMGWYRQAPGKERELVAAIASRGGSTYYADSVKGRFTISRDNAKNTVYLQMNSLKPEDTAVYYCAAGARYGKVRYGYWGQGTQVTVSS	high polyreactivity
QVQLEESGGGVVQAGGSLRLSCAASGSILGISAMGWYRPAPGKERALVAAIRTSSGSTYYADSVKVRFTISRDNAKNTVYFQMNSLKPEDTAVYSCAAYAFRYTPYYSWGQGTQVTVSS	high polyreactivity
QVQLEESGGRLVQAGGSLRLSCAASGGIFADYAMGWDRPAPGKERELVADISARGGSTYYADSVKGRFTISRDNAKNTVYLQMNSLKPEDTAVYYCAADALGYDYYYWGQGTQVTVSS	low polyreactivity
QVQLEESGRGLVQAGVSLRLSSAASGNTFVTNTMVWYRQAPGKERELVAAIDSGGDSYYADSVKGRFTISRDNAKNTVYFQMNSLKPEDTAVYYCAAVGDRNYFSNRRYEYWGQGTQVTVSS	low polyreactivity
